From the supplement of paper PMC10567573

B1: FCHO1 (parent)
chain: DKLALCHLELTRKLQDLIKDVLRY
B2: TRIB1 (parent)
chain: EIGTSDQIVPEYQEDSDISSFFC
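Note: lentivirally expressed fusions sorted by FACS into six bins by GFP to DsRed ratio, PSI derived from sequencing read proportions per bin multiplied by bin number.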

Variants of: B1
Experiment: protein stability index of a GFP-peptide fusion (GPS, HEK-293T) (PSI 1-6); higher = more stable
Conditions: c terminus: a fixed tail appended
Y24C gave a protein stability index of 2.92.
Variant Y24P has a protein stability index of 1.99.
Work on K2M yielded a protein stability index of 3.83.
Variant K2S has a protein stability index of 2.21.
For K2Q, the protein stability index was 2.45.
Work on K2H yielded a protein stability index of 2.72.
In the case of L8K, the protein stability index is reported as 2.72.
For L8N, the protein stability index was 2.36.
L8G gave a protein stability index of 2.92.
L14Y gave a protein stability index of 1.49.
Variant L14E has a protein stability index of 2.3.
L14G showed a protein stability index of 1.53.
With L14W the protein stability index was 1.53.
L14H showed a protein stability index of 1.88.
L14Q showed a protein stability index of 2.14.
For L14R, the protein stability index was 2.6.
Variant D1P has a protein stability index of 4.01.
For D1F, the protein stability index was 3.44.
Work on D1N yielded a protein stability index of 4.01.
D1V showed a protein stability index of 3.12.
Variant D1K has a protein stability index of 2.37.
Variant L22S has a protein stability index of 2.44.
Variant L22G has a protein stability index of 1.68.
L22Q showed a protein stability index of 2.92.
L22T showed a protein stability index of 1.05.
For L22M, the protein stability index was 2.35.
For L10Q, the protein stability index was 3.04.
Variant L10D has a protein stability index of 2.09.
Work on L10F yielded a protein stability index of 3.33.
For L10G, the protein stability index was 1.86.
Variant L10H has a protein stability index of 1.3.
With L10N the protein stability index was 1.21.
L10S gave a protein stability index of 1.93.
For R23A, the protein stability index was 3.49.
R23I showed a protein stability index of 1.47.
For R23L, the protein stability index was 2.59.
For Q15T, the protein stability index was 2.05.
Q15R showed a protein stability index of 2.88.
Work on Q15N yielded a protein stability index of 2.84.
Variant Q15Y has a protein stability index of 2.79.
H7S showed a protein stability index of 1.81.
With H7M the protein stability index was 2.67.
Work on H7A yielded a protein stability index of 1.84.
For L5W, the protein stability index was 4.03.
For L5Y, the protein stability index was 2.01.
L5I showed a protein stability index of 1.94.
Variant K19I has a protein stability index of 2.33.
For K19Y, the protein stability index was 2.43.
Variant K19Q has a protein stability index of 1.36.
With K19D the protein stability index was 1.78.
Variant K19H has a protein stability index of 2.18.
K19E showed a protein stability index of 2.16.
Variant K19G has a protein stability index of 2.29.
With K19R the protein stability index was 2.22.
Variant E9F has a protein stability index of 2.62.
For E9V, the protein stability index was 4.2.
Variant E9A has a protein stability index of 2.63.
With E9W the protein stability index was 2.73.
With T11P the protein stability index was 1.51.
T11M gave a protein stability index of 2.82.
Variant T11F has a protein stability index of 3.07.
Variant T11Y has a protein stability index of 2.57.
For L17S, the protein stability index was 2.04.
L17D gave a protein stability index of 2.06.
Work on L17P yielded a protein stability index of 3.05.
In the case of L17V, the protein stability index is reported as 2.4.
Variant L17H has a protein stability index of 2.06.
L17G showed a protein stability index of 3.64.
In the case of L17E, the protein stability index is reported as 2.04.
With L17A the protein stability index was 1.42.
In the case of L17W, the protein stability index is reported as 4.39.
K13S gave a protein stability index of 1.98.
K13I showed a protein stability index of 1.15.
With K13V the protein stability index was 3.38.
In the case of K13R, the protein stability index is reported as 2.23.
D16P gave a protein stability index of 2.15.
Work on D16Y yielded a protein stability index of 2.42.
With D16F the protein stability index was 2.36.
With I18H the protein stability index was 2.12.
Variant I18Y has a protein stability index of 2.52.
I18A gave a protein stability index of 2.71.
For I18K, the protein stability index was 3.16.
Variant I18N has a protein stability index of 2.4.
Work on I18P yielded a protein stability index of 2.11.
I18D gave a protein stability index of 2.98.
Variant C6E has a protein stability index of 2.04.
For C6M, the protein stability index was 3.01.
Variant C6T has a protein stability index of 2.99.
C6S showed a protein stability index of 3.13.
Variant C6P has a protein stability index of 2.37.
Work on V21T yielded a protein stability index of 2.53.
For V21R, the protein stability index was 2.
V21F showed a protein stability index of 2.25.
For V21N, the protein stability index was 2.02.
Work on A4Q yielded a protein stability index of 3.43.
With A4G the protein stability index was 1.6.
Work on A4I yielded a protein stability index of 3.21.
In the case of D20L, the protein stability index is reported as 2.19.
With D20P the protein stability index was 2.52.
D20Y gave a protein stability index of 2.3.
For D20K, the protein stability index was 1.71.
L3H showed a protein stability index of 2.12.
In the case of L3N, the protein stability index is reported as 2.25.
In the case of R12W, the protein stability index is reported as 2.44.
For R12T, the protein stability index was 1.94.
In the case of R12E, the protein stability index is reported as 1.54.
With R12A the protein stability index was 1.42.

Variants of: B2
Experiment: as above
Conditions: c terminus: native
S20Y gave a protein stability index of 2.42.
S20V gave a protein stability index of 2.53.
For S20W, the protein stability index was 2.35.
In the case of F21Y, the protein stability index is reported as 2.64.
Variant F21G has a protein stability index of 3.97.
In the case of F21I, the protein stability index is reported as 3.59.
Variant F21H has a protein stability index of 4.58.
F21A gave a protein stability index of 3.98.
In the case of F21L, the protein stability index is reported as 3.45.
Variant F21R has a protein stability index of 3.64.
Work on F21C yielded a protein stability index of 3.5.
In the case of F21M, the protein stability index is reported as 3.85.
F21K gave a protein stability index of 4.67.
Work on F21T yielded a protein stability index of 4.78.
For F21D, the protein stability index was 3.9.
F21W showed a protein stability index of 2.89.
Variant F21V has a protein stability index of 3.89.
F21N showed a protein stability index of 4.7.
In the case of F21S, the protein stability index is reported as 4.08.
F21Q showed a protein stability index of 4.23.
F21P showed a protein stability index of 4.6.
F21E gave a protein stability index of 4.43.
C23T showed a protein stability index of 2.1.
Variant C23E has a protein stability index of 2.94.
Variant C23F has a protein stability index of 2.29.
C23S gave a protein stability index of 2.8.
Work on C23M yielded a protein stability index of 1.73.
With C23I the protein stability index was 2.67.
C23Y gave a protein stability index of 2.26.
C23A showed a protein stability index of 3.08.
C23V gave a protein stability index of 2.77.
In the case of C23P, the protein stability index is reported as 3.44.
Work on C23G yielded a protein stability index of 3.67.
For C23R, the protein stability index was 4.18.
For C23L, the protein stability index was 2.9.
C23W gave a protein stability index of 1.95.
Variant C23Q has a protein stability index of 3.76.
C23K gave a protein stability index of 4.49.
For C23H, the protein stability index was 3.65.
Variant C23N has a protein stability index of 3.73.
C23D showed a protein stability index of 2.51.
F22H showed a protein stability index of 4.3.
Work on F22N yielded a protein stability index of 4.54.
With F22C the protein stability index was 3.45.
With F22S the protein stability index was 4.48.
F22T showed a protein stability index of 4.48.
Variant F22Q has a protein stability index of 4.82.
With F22P the protein stability index was 4.55.
Variant F22D has a protein stability index of 3.86.
Work on F22E yielded a protein stability index of 4.3.
Work on F22W yielded a protein stability index of 1.98.
F22I showed a protein stability index of 4.03.
Work on F22R yielded a protein stability index of 4.7.
With F22A the protein stability index was 4.11.
In the case of F22M, the protein stability index is reported as 3.16.
F22K showed a protein stability index of 5.29.
F22G gave a protein stability index of 4.79.
F22V showed a protein stability index of 3.88.
With F22Y the protein stability index was 2.03.
For F22L, the protein stability index was 3.36.
